# Source: US20250262316A1 (BIO THERA SOLUTIONS, published 2025)
# T1: B7-H3 (NCBI Reference Sequence: NP_001019907.1) on CHO-K1-B7-H3 cells (human, UniProt Q5ZPR3 29-534)
# T1 sequence: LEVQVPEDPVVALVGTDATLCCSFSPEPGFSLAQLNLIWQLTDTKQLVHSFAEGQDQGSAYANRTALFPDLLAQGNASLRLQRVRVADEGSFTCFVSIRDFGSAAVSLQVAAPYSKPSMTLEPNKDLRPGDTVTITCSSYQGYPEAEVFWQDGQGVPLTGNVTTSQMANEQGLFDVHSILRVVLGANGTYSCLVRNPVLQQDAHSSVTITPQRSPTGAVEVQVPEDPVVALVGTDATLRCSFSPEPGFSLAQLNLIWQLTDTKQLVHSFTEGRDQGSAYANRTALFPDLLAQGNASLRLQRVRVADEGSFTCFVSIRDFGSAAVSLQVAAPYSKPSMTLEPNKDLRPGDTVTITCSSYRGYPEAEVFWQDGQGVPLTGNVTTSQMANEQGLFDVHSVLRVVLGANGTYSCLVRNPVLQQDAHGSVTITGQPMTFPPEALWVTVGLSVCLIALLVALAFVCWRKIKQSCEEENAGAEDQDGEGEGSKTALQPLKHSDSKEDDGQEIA
# T2: B7-H3 on Calu-6 cells (UniProt Q5ZPR3 29-534, limits assumed)
# T2 sequence (looked up): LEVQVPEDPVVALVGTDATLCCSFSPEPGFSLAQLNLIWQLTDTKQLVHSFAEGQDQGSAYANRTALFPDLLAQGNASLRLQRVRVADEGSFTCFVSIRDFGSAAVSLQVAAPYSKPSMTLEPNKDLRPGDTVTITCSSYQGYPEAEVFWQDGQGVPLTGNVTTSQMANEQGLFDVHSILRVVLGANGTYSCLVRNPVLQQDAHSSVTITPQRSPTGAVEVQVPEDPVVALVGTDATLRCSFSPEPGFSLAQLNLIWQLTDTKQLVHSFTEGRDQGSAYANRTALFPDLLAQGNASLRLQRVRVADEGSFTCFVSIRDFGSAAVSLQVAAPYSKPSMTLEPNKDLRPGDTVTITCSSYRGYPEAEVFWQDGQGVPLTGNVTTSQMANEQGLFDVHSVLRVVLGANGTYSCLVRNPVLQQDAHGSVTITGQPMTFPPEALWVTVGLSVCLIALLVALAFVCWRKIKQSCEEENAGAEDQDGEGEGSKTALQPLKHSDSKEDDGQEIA
# T3: Lag3 (NCBI Reference Sequence: NP_002277.4) on Lag3-CHO cells (UniProt P18627 23-525, limits assumed)
# T3 construct: whole, on cells
# T3 sequence (looked up): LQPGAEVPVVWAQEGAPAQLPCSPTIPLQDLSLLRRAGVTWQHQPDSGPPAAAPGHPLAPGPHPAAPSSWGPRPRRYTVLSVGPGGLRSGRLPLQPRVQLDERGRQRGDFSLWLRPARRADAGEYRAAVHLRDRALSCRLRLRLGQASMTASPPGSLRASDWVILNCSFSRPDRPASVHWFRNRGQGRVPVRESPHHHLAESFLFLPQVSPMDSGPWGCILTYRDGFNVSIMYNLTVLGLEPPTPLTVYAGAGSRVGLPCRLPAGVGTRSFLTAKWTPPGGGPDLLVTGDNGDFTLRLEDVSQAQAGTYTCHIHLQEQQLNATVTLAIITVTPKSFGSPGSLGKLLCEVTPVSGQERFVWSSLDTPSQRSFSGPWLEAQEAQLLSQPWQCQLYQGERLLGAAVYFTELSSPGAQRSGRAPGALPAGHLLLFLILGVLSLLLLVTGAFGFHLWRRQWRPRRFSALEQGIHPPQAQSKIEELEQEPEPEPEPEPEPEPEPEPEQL
# T4: antigen hB7-H3-His (human, UniProt Q5ZPR3 29-461)
# T4 construct: residues 1-28 are left out on that ground
# T4 sequence: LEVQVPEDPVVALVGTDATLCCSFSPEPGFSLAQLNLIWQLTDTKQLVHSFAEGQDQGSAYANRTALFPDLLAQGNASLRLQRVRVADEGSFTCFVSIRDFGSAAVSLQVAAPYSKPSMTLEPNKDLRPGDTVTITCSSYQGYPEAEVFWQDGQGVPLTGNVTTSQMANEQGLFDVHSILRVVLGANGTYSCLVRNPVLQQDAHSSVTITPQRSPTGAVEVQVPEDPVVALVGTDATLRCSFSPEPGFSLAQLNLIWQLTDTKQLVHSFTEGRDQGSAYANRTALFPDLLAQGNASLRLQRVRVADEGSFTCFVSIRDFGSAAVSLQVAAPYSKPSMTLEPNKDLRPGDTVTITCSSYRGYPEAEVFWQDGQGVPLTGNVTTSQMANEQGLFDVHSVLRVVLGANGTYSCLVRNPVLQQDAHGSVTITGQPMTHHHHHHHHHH
# T5: mouse B7-H3 (SinoBiological, 50973-M08H) (mouse, UniProt Q8VE98 29-244)
# T5 construct: Bought protein
# T5 sequence (looked up): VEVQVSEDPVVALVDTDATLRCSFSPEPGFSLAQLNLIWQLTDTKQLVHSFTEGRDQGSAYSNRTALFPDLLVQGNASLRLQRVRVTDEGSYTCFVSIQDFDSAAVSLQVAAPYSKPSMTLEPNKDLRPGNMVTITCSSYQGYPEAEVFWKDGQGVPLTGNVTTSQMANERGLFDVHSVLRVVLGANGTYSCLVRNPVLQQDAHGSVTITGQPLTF
# T6: B7-H3 on MDA-MB-468 cells (human, UniProt Q5ZPR3)
# T6 construct: endogenous, on the cell surface
# T6 sequence (cell surface antigen, looked up): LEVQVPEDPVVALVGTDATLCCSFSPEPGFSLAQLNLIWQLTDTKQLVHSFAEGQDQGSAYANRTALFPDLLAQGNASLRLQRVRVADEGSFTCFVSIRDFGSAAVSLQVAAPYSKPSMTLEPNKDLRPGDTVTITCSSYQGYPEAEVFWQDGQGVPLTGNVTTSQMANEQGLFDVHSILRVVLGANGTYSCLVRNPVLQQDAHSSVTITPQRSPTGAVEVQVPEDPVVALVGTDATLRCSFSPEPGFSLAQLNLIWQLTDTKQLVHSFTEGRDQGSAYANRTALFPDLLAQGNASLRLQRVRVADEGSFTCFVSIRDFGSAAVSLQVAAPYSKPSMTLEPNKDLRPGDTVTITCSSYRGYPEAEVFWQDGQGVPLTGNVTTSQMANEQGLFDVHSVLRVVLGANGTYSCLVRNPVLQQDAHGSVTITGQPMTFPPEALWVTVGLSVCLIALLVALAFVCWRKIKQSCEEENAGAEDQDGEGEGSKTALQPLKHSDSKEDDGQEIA
# What was measured:
# [1] = target: T1, B7-H3 (NCBI Reference Sequence: …); assay: cell-based or functional assay
# [2] = target: T2, B7-H3 on Calu-6 cells; assay: cell-based or functional assay
# [3] = target: T7, VISTA (NCBI Reference Sequence: NP_071436.1) on VISTA-CHO cells (UniProt Q9H7M9 33-311, limits assumed); assay: flow cytometry on VISTA-CHO cells
# T7 construct: whole, on cells
# [4] = target: T3, Lag3 (NCBI Reference Sequence: …); assay: flow cytometry on Lag3-CHO cells
# [5] = target: T8, cynomolgus monkey B7-H3 (novoprotein CA61) (cynomolgus monkey); assay: ELISA, antigen coated at 2 µg/mL, anti-human kappa light chain HRP detection
# T8 construct: Bought protein
# [6] = target: T4, antigen hB7-H3-His; assay: as above
# [7] = target: T4, antigen hB7-H3-His; assay: SPR, BiaCore T200, ADC or antibody captured on Protein A chip, hB7-H3-His as analyte, 1:1 model
# [8] = target: T4, antigen hB7-H3-His; assay: SPR, BiaCore T200, ADC or antibody captured on Protein A chip, hB7-H3-His as analyte, 1:1 model; naked Antibody V3, not conjugated
# [9] = target: T9, Tim3 (NCBI Reference Sequence: NP_116171.3) on Tim3-CHO cells (UniProt Q8TDQ0 22-301, limits assumed); assay: flow cytometry on Tim3-CHO cells; blank P3 0.2%; the filing says V1-V5 did not bind
# T9 construct: whole, on cells
# [10] = target: T5, mouse B7-H3 (SinoBiological, 50973-M08H); assay: ELISA, antigen coated at 2 µg/mL, Antibody V3 in 2-fold dilutions (EC50 cell in Table 12: NA)
# [11] = target: T7, VISTA (NCBI Reference Sequence: …); assay: flow cytometry on VISTA-CHO cells; blank P3 0.1%; the filing says V1-V5 did not bind
# [12] = target: T9, Tim3 (NCBI Reference Sequence: …); assay: flow cytometry on Tim3-CHO cells
# [13] = target: T10, hB7-H3-Fc; assay: ELISA on coated hB7-H3-Fc (2 ug/mL), HRP anti-human kappa secondary, A450, antibody from 300 nM in 3-fold dilutions; axis 'Concentration' has no unit, nM from p-1066
# T10 construct: also called antigen hB7-H3-Fc
# [14] = target: T6, B7-H3 on MDA-MB-468 cells; assay: flow cytometry on MDA-MB-468 cells; blank V2-R 0.9%
# [15] = target: T3, Lag3 (NCBI Reference Sequence: …); assay: flow cytometry on Lag3-CHO cells; blank P3 0.5%; the filing says V1-V5 did not bind
# [16] = target: T4, antigen hB7-H3-His; assay: SPR, BiaCore T200, antibody captured on Protein A chip, hB7-H3-His as analyte, 1:1 model
# [17] = target: T9, Tim3 (NCBI Reference Sequence: …); assay: flow cytometry on Tim3-CHO cells, PE anti-human IgG Fc secondary
# [18] = target: T7, VISTA (NCBI Reference Sequence: …); assay: flow cytometry on VISTA-CHO cells, PE anti-human IgG Fc secondary
# [19] = target: T3, Lag3 (NCBI Reference Sequence: …); assay: flow cytometry on Lag3-CHO cells, PE anti-human IgG Fc secondary
# [20] = target: T6, B7-H3 on MDA-MB-468 cells; assay: flow cytometry on MDA-MB-468 cells, PE anti-human IgG Fc secondary, antibody from 100 nM in 3-fold dilutions; axis 'Concentration' has no unit, nM from p-1056
# T10 sequence (fusion chain, as listed by the source limits assumed): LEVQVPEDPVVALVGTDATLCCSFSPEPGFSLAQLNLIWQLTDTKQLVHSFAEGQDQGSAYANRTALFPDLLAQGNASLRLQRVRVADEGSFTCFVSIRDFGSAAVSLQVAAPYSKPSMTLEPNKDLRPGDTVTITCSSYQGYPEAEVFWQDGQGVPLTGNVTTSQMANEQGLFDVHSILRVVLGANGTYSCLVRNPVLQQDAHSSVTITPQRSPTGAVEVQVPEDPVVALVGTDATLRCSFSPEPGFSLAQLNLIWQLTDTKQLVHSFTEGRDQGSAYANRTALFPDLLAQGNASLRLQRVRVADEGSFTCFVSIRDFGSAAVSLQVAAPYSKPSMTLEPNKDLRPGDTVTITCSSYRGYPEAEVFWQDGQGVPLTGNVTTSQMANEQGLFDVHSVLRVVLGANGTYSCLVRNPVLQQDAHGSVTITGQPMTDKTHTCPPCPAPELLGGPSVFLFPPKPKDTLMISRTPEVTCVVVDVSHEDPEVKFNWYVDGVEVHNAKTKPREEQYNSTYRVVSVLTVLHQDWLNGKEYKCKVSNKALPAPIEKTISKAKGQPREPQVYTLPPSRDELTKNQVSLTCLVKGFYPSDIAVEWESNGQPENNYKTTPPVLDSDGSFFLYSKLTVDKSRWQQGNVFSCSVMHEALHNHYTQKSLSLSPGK
binder,measurement,setting,value
"ADC2 (control drug) (antibody, human IgG1, kappa, V domains shown, MC-GGFG-DXD (Deruxtecan) conjugated after TCEP reduction; DAR (p) 3.7 for the whole antibody; sites not stated) VH: EVQLVQSGAEVKKSGESLKISCKASGYTFTDYDINWVRQMPGKGLEWIGWIFPGDDTTKYNEKFKGQVTLSADKSTNTAYMQWSSLKASDTAMYYCARSPSFDYWGQGTLVTVSS VL: QIVLTQSPGTLSLSPGERATLSCSASSTIGFMYWYQQKPGQAPRRWIYDTSKLASGVPDRFSGSGSGTDYTLTISRLEPEDFAVYYCHQRSSYPTFGQGTKVEIKR","IC50 (nM), in-vitro cytotoxicity, CCK8",[1],0.77 nM
same,"IC50 (nM), in-vitro cytotoxicity, CCK8",[2],68.8 nM
"Antibody V3 (antibody, human IgG1, kappa, V domains shown, Humanized from chimeric antibody M1; also called humanized antibody V3) VH: EVQLVQSGAEVKKSGESLKISCKASGYTFTDYDINWVRQMPGKGLEWIGWIFPGDDTTKYNEKFKGQVTLSADKSTNTAYMQWSSLKASDTAMYYCARSPSFDYWGQGTLVTVSS VL: QIVLTQSPGTLSLSPGERATLSCSASSTIGFMYWYQQKPGQAPRRWIYDTSKLASGVPDRFSGSGSGTDYTLTISRLEPEDFAVYYCHQRSSYPTFGQGTKVEIKR",binding result,[3],no binding (tested: 100 nM)
same,binding result,[4],no binding (tested: 100 nM)
same,EC50,[5],0.042 µg/mL
same,EC50,[6],0.042 µg/mL
same,koff,[7],0.000155 s⁻¹
same,kon,[7],886000 M⁻¹ s⁻¹
same,Kd,[8],0.175 nM
same,% of cells in gate P3 at 100 nM,[9],0.4%
same,binding result,[10],no binding (tested: initial concentration of 2 µg/mL)
same,% of cells in gate P3 at 100 nM,[11],0.7%
same,binding result,[12],no binding (tested: 100 nM)
same,EC50,[13],1.77 nM
same,% of cells in gate V1-R at 0.411 nM,[14],36.8%
same,% of cells in gate V1-R at 1.23 nM,[14],86.4%
same,% of cells in gate V1-R at 3.7 nM,[14],94%
same,% of cells in gate V1-R at 11.11 nM,[14],97.2%
same,% of cells in gate V1-R at 33.33 nM,[14],98.9%
same,% of cells in gate V1-R at 100 nM,[14],99.6%
same,% of cells in gate P3 at 100 nM,[15],0.6%
"control Antibody M30-H1-L4 (antibody, human IgG1, kappa, V domains shown, Control anti-B7-H3 antibody) VH: QVQLVQSGAEVKKPGSSVKVSCKASGYTFTNYVMHWVRQAPGQGLEWMGYINPYNDDVKYNEKFKGRVTITADESTSTAYMELSSLRSEDTAVYYCARWGYYGSPLYYFDYWGQGTLVTVSS VL: EIVLTQSPATLSLSPGERATLSCRASSRLIYMHWYQQKPGQAPRPLIYATSNLASGIPARFSGSGSGTDFTLTISSLEPEDFAVYYCQQWNSNPPTFGQGTKVEIKR",Kd,[16],0.986 nM
same,koff,[16],0.00024 s⁻¹
same,kon,[16],244000 M⁻¹ s⁻¹
same,EC50,[13],3.73 nM
same,binding result,[17],no binding (tested: 100 nM)
same,binding result,[18],no binding (tested: 100 nM)
same,% of cells in gate V1-R at 0.411 nM,[14],1.1%
same,% of cells in gate V1-R at 1.23 nM,[14],4%
same,% of cells in gate V1-R at 3.7 nM,[14],38.4%
same,% of cells in gate V1-R at 11.11 nM,[14],97.2%
same,% of cells in gate V1-R at 33.33 nM,[14],98.8%
same,% of cells in gate V1-R at 100 nM,[14],99.3%
same,binding result,[19],no binding (tested: 100 nM)
same,EC50,[20],8.54 nM
